Results taken from publication PMC11699742.

Target: α-Synuclein (UniProt P37840)

Chain of DnaK from E. coli (P0A6Y8 whole entry): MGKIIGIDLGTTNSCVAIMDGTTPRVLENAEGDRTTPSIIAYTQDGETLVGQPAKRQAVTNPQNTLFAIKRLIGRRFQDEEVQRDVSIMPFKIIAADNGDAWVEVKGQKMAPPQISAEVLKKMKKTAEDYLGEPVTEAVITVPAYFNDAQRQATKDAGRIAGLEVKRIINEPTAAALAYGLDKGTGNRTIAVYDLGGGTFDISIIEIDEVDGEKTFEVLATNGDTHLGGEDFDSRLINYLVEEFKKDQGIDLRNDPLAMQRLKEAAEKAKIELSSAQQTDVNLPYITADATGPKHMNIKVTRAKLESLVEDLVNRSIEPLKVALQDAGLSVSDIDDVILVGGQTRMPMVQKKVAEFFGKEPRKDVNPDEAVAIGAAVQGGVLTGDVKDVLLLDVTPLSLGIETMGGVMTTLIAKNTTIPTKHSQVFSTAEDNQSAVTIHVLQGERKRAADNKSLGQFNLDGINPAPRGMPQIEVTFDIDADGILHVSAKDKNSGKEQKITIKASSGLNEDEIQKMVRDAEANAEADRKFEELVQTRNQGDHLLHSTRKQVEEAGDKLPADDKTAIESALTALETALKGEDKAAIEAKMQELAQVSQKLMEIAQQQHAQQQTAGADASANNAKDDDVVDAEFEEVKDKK

ThT fibrillation of 50 µM α-Syn monomer with 0.5 µM DnaK, with 2 mM ATP: relative decrease in vmax (1.32 h^-1 to 0.49 h^-1) and end signal (176,900–53,000): 64%
ThT fibrillation of 50 µM α-Syn monomer with 0.5 µM DnaK, without ATP: relative decrease in vmax (0.99 h^-1 to 0.55 h^-1) and end signal (43,000-24,600): 45%
Substance: DnaK from E. coli (from UniProt P0A6Y8 1-638) (natural protein)
